Data from US20200138716A1, “COMPOSITIONS AND METHODS FOR INDUCING NANOPARTICLE-MEDIATED MICROVASCULAR EMBOLIZATION OF TUMORS” (Poseida Therapeutics, Inc., priority 2014, published 2020).
Where two headings read alike, the source gives them in different places.

What was measured:
[1] = background values; cited from earlier work
[2] = test system: human umbilical vein endothelial cells (HUVECs); experiment: CuFL1A fluorescence, extracellular NO of cultured HUVECs; assay type: cell-based; details: for effect of further additions of DEANO on CuFL1A emission: DEANO added; for CuFL1A fluorescence compared to extracellular environment of HUVECs: no DEANO
Protocol: Cells may be incubated with 1 μM or less, relative to total concentration, of the NO sensor in PBS buffer or a growth medium for imaging. Concentration may be adjusted to reduce the fluorescent signal intensity to desired levels. Imaging of extra-cellular NO may be performed directly in the growth medium for imaging, and images may be taken as often as needed following cell stimulation.
In another example study, pooled 4× passaged human umbilical vein endothelial cells (HUVECs) were grown in Corning Costar 96 well white plates with clear bottoms in EBM-2 media to 80-90% confluence. Half of the free metMb and metPEM suspensions were incubated with sodium sulfate to reduce the myoglobin back to oxyMb form. The free oxyMb and oxyPEM suspensions were then dialyzed for four hours to remove salt. The rest of the original metMb and metPEM suspensions were used as received.
A 4× concentrated FL1A stock solution (10 μM in PBS+gluc+ca+mg/DMSO), a 4× concentrated DEANO stock solution (200 μM in 10 mM NaOH), and a 4× concentrated LNNA stock solution (400 μM in PBS+glu+ca+mg) were prepared so that 50 μL of each was added per well to a final and consistent volume of 200 μL per well.
A 2× concentrated stock solution of metMb (50 mg/mL in PBS+gluc+ca+mg) and 2× concentrated oxyMb (50 mg/mL in PBS+gluc+ca+mg) solution were also prepared. […] Fluorescence readings were obtained from each well following a set 30-minute incubation period with each of the experimental groups.

[3] = CuFL1A fluorescence NO sensor assay in solution; assay type: biochemical; details: for CuFL1A fluorescence on addition of DEANO: DEANO added to the solution
Protocol: In various studies to test these potential mechanisms, PEM may be incubated with a NO probe. […] When non-emissive CuFL1A reacts with NO, Cu(II) is reduced to Cu(I), among other changes, to produce fluorescent FL1A-NO. In this manner, CuFL1A may be used as an NO sensor activated by fluorescence to assess the relative NO levels in solution. In various studies, cultured umbilical vein endothelial cells may be incubated with CuFL1A and either PEM or a control in order to assess changes in NO levels in the extracellular environment. In various studies, luminal chemiluminescence due to the presence of reactive oxygen species may be used to assess the biological consequences of PEM-bound NO promotion of neutrophil activation. The FL1A ligands may be dissolved in spectroscopic grade DMSO to achieve a final concentration of the stock solution of around […]. To determine the exact concentration, the stock solution may be diluted in pH 7 aqueous buffer and the absorbance of the bands at 504 and 499 nm may be measured with E=4.6×104 M-1 cm-1. The absorbance value and dilution factor may be recorded and the exact concentration of the ligand in the stock solution may be calculated. The DMSO stock solution of the metal-free ligand may be aliquoted in 50 μL portions and stored at -80° C. The aliquots may be thawed and the absorbance of the band at 504 or 499 nm may be checked before use. […] The copper complex may be prepared fresh, immediately before cell incubation, using one of the frozen aliquots of the ligand stock solution. […] The unused portion of the solution may be discarded by the end of the day. In an example study, half of the free MetMb and […] suspensions were incubated with sodium sulfate to reduce the myoglobin back to its oxyMb form. The free oxyMb and oxyPEM suspensions were then dialyzed for 4h to remove salt, and the rest of the original metMb and […] suspensions were used as received. […] A 2× concentrated stock solution of metMb (50 mg/mL in PBS) and oxyMb (50 mg/mL in PBS) was prepared. The final concentrations of empty polymersomes, […] and oxyPEM were determined by UV-Vis spectrometry and ICP-OES. The final volume in each well was 200 μL, and therefore 100 μL of each solution was added per well, thus diluting these original stock solutions by half. Fluorescence was measured various time points for each condition.

[4] = Oxygen equilibrium binding curves (Hemox Analyzer, Hill model); details: 37° C.; partial pressure of O2 at 50% saturation
Protocol: Oxygen equilibrium binding curves of PEM and free Mb dispersions may be measured using a Hemox™ Analyzer at physiological temperature (37° C.). In brief, samples may be allowed to saturate to a pO2 of 147 mm Hg using compressed air and then deoxygenated using a compressed nitrogen stream. UV-Vis absorbance measurements of oxygenated and deoxygenated samples may be recorded as a function of pO2 via dual wavelength spectroscopy. Oxygen-PEM/myoglobin equilibrium curves may be fit to a four-parameter (A0, A∞, P50, n) Hill model:
in which A0 and A∞ represent the absorbance at 0 mm Hg and at full O2 saturation, respectively. The pO2 represents the partial pressure of O2, and P50 represents the partial pressure of O2 where PEM/Mb is 50% saturated with oxygen. Lastly, ‘n’ represents the cooperativity coefficient of PEM/Mb. […] The lower O2 affinity (higher P50) of PEM than free myoglobin may be attributed to the shielding effect of the polymersome membrane, which was further found to delay the kinetics of O2 binding to PEM.

[5] = test system: human neutrophils incubated with HUVECs; experiment: Luminol chemiluminescence, neutrophil activation on HUVECs; assay type: cell-based; details: for generation of reactive oxygen species compared to luminol control: neutrophils with HUVECs, 30 minutes, maximal concentrations (25 mg/mL polymer or protein; metPEM 1.3 mg/mL metMb, 23.5 mg/mL polymer)
Protocol: (§1) In another example study, similar to the previous study, pooled 4× passaged human umbilical vein endothelial cells (HUVECs) were grown in Corning Costar 96 well white plate with clear bottoms in EBM-2 media to 80-90% confluence. Half of the free metMb and […] suspensions were incubated with sodium sulfate to reduce the myoglobin back to oxyMb form. The free oxyMb and oxyPEM suspensions were then dialyzed for four hours to remove salt. The rest of the original metMb and […] suspensions were used as received. Further, a ficoll-paque density gradient separation was used to purify fresh human neutrophils and re-suspend in media at a concentration of 6×10^6 neutrophils/mL. In the assay, 50 mL aliquots were added per well, with a final volume of 200 μL per well, as in the study above. […] A 2× concentrated stock solution of metMb (50 mg/mL in PBS+gluc+ca+mg) and 2× concentrated stock of oxyMb (50 mg/mL in PBS+gluc+ca+mag) were prepared. The final concentrations of empty polymersome, […], and oxyPEM were determined by UV-Vis spectrometry and ICP-OES. […] Further, 600 μM of a luminol solution in media containing 18.75 μ/mL horseradish peroxidase (HRP) was prepared, with final concentrations in assay wells of around 120 μM luminol and 3.75 μ/mL HRP. […] A luminometor was used to continuously measure instantaneous reactive oxygen species generation after addition of each treatment administered to the HUVECs with and without neutrophils (total assay time 30 minutes). At the end of the study, sample supernatant were aliquoted and the cells were fixed and frozen for future myeloperoxidase assays or MPO ELISAs to look at degranulation.

[6] = test system: HUVECs; experiment: Luminol chemiluminescence (reactive oxygen species) with HUVECs alone; assay type: cell-based, human; details: HUVECs without neutrophils, 30 minutes
Protocol: as §1, with “received.” for “received. Further, a ficoll-paque density gradient separation was used to purify fresh human neutrophils and re-suspend in media at a concentration of 6×10^6 neutrophils/mL. In the assay, 50 mL aliquots were added per well, with a final volume of 200 μL per well, as in the study above.”

[7] = no DEANO, higher concentrations (e.g. 25 mg/mL metMb)

Row | Molecule | P50 [1] | affinity for oxygen / oxygen tension of release [1] | effect of further additions of DEANO on CuFL1A emission [2] | CuFL1A fluorescence compared to extracellular environment of HUVECs [2] | generation of reactive oxygen species compared to luminol control [5] | generation of reactive oxygen species (luminol chemiluminescence) [6] | CuFL1A fluorescence on addition of DEANO [3] | CuFL1A fluorescence compared to its intensity in PBS [3, 7] | also measured
1 | hemoglobin: oxygen-transporting protein in human red blood cells | 25-50 mmHg | 20 to 50 mmHg | – | – | – | – | – | – | –
2 | hemoglobin A: Normal adult hemoglobin A | 26.5 mmHg | – | – | – | – | – | – | – | –
3 | CCN(CC)/[N+]([O-])=N/O.CCNCC [DEANO, diethylamine NO, reference compound] | – | – | – | – | – | – | – | – | increase in CuFL1A emission in extracellular environment of HUVECs ([2]; 30-minute incubation): ~1.5 fold; CuFL1A fluorescence compared to its intensity in PBS ([3]; solution, no cells): around seven-fold
4 | free Mb: free (unencapsulated) myoglobin (protein, UniProt P68082 2-154, looked up) Myoglobin: GLSDGEWQQVLNVWGKVEADIAGHGQEVLIRLFTGHPETLEKFDKFKHLKTEAEMKASEDLKKHGTVVLTALGGILKKKGHHEAELKPLAQSHATKHKIPIKYLEFISDAIIHVLHSKHPGDFGADAQGAMTKALELFRNDIAAKYKELGFQG | 2.75 mmHg | 2 to 3 mmHg | – | – | – | – | – | – | P50 [4]: ~2 mm Hg
5 | oxyMb: oxygenated myoglobin, free protein (protein, UniProt P68082 2-154, looked up, oxygenated form, oxygenated myoglobin, free protein) Myoglobin: GLSDGEWQQVLNVWGKVEADIAGHGQEVLIRLFTGHPETLEKFDKFKHLKTEAEMKASEDLKKHGTVVLTALGGILKKKGHHEAELKPLAQSHATKHKIPIKYLEFISDAIIHVLHSKHPGDFGADAQGAMTKALELFRNDIAAKYKELGFQG | – | – | not able to mitigate | diminished | statistically significant increase | do not, in and of themselves, result in the generation of reactive oxygen species | did not augment CuFL1A fluorescence | markedly decreased to baseline values | effect of DEANO addition on neutrophil activation ([5]; DEANO added): did not mitigate the levels of neutrophil activation; CuFL1A fluorescence compared to its intensity in PBS ([3]; no DEANO, low concentrations (metMb up to 5 mg/mL)): greater
6 | metMb: metmyoglobin, free protein (protein, UniProt P68082 2-154, looked up, met (ferric) form, metmyoglobin, free protein) Myoglobin: GLSDGEWQQVLNVWGKVEADIAGHGQEVLIRLFTGHPETLEKFDKFKHLKTEAEMKASEDLKKHGTVVLTALGGILKKKGHHEAELKPLAQSHATKHKIPIKYLEFISDAIIHVLHSKHPGDFGADAQGAMTKALELFRNDIAAKYKELGFQG | – | – | only able to partially mitigate | diminished | no appreciable generation of reactive oxygen species | do not, in and of themselves, result in the generation of reactive oxygen species | the degree of amplification in CuFL1A emission was lower | dramatically reduced | total oxidative burst (integrated luminol chemiluminescence), neutrophil activation ([5]; 30 minute incubation): did not have any effects
